The series concerns the molecule itself. The series is described as follows: crystal structure.

B1: Mycobacterium tuberculosis methyltransferase Rv2067c (tagless recombinant protein used for crystallization) (enzyme)
chain: TDDHPRADIVSRQYHRWLYPHPIADLEAWTTANWEWFDPVHSHRILWPDREYRPDLDILIAGCGTNQAAIFAFTNRAAKVVAIDISRPALDHQQYLKDKHGLANLELHLLPIEELATLGRDFDLVVSTGVLHHLADPRAGMKELAHCLRRDGVVAAMLYGKYGRIGVELLGSVFRDLGLGQDDASIKLAKEAISLLPTYHPLRNYLTKARDLLSDSALVDTFLHGRQRSYTVEECVDLVTSAGLVFQGWFHKAPYYPHDFFVPNSEFYAAVNTLPEVKAWSVMERLETLNATHLFMACRRDRPKEQYTIDFSTVAALDYVPLMRTRCGVSGTDMFWPGWRMAPSPAQLAFLQQVDGRRTIREIAGCVARTGEPSGGSLADLEEFGRKLFQSLWRLDFVAVALPASG
notes: also called MTase
Turning to B1, the “stoichiometry N” value is 2.
